Measurements: paper PMC4674563

Target: Photosystem II core complex from solubilized grana (SG-PSII) (Nicotiana tabacum (endogenous in thylakoids) | Nicotiana tabacum) (UniProt P69556)
Assay: SEC + native gel or EMSA; Ni-NTA-purified PSII pools on Superose 6 in 40 mM MES-NaOH pH 6.5, 20 mM NaCl, 5 mM MgCl2, 1 mM CaCl2, 10 mM NaHCO3, 0.01% β-DDM; pools and fractions checked by BN-PAGE (3-12% gradient, 4°C); C2 also seen by negative-stain TEM

stoichiometry N: 2
Substance: Photosystem II core complex from solubilized grana (SG-PSII) (from UniProt P69556 1-344; P06411 1-508; P06413 15-473; P69686 1-353; P69384 1-83; P06415 1-73; P60139 1-38; Q40519 38-136)
